Here are results for 6 molecules from PMC2836939.

Common to all, as to assay: EMSA
Series [1] concerns the target T1, Dmp1 (Dmtf1) (UniProt Q8CE22 1-761).
T1 sequence: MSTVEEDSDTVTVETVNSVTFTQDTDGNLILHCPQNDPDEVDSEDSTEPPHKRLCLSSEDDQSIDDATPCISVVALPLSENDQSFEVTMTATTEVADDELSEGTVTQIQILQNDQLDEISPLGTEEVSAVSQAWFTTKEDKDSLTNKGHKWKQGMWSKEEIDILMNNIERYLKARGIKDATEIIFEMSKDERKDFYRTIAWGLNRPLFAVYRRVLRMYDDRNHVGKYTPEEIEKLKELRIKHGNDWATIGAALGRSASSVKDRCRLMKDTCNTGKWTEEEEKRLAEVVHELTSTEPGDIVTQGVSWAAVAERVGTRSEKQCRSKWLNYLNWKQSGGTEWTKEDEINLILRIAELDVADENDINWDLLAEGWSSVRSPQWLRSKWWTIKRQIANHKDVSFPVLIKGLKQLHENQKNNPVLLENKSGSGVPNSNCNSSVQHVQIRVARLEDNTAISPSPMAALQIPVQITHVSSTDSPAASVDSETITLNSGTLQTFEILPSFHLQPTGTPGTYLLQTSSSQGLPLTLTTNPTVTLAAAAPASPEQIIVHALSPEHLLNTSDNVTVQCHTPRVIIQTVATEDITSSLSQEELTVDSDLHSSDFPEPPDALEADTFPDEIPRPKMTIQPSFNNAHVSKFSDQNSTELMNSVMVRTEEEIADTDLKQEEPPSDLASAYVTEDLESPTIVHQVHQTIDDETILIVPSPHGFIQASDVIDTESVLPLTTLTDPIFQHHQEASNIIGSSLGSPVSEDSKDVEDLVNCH

Series [2] addresses T1, Dmp1 (Dmtf1). The source holds these as a separate data set.
Series [3] addresses T1, Dmp1 (Dmtf1). This is another data set of the same source.
Series [4] deals with T1, Dmp1 (Dmtf1). This is another data set of the same source.
Series [5] deals with T1, Dmp1 (Dmtf1). This is another data set of the same source.

Read-outs that look alike come from different tables or passages of the source.

B1: Egr1#1 (dsDNA)
DNA 1: TTTAAAACGAAGGTGGAGGCGGATGGAGAGAGAGAGAGAGAG
DNA 2: CTCTCTCTCTCTCTCTCCATCCGCCTCCACCTTCGTTTTAAA
In the case of B1, the binding result with Dmp1 (Dmtf1) [1] was “binds”.

B2: JunB#2 (control) (dsDNA)
DNA 1: TTTGAGCCCTGGGAGCCATCCGAGCGGCTTTCAACAGACC
DNA 2: GGTCTGTTGAAAGCCGCTCGGATGGCTCCCAGGGCTCAAA
On to B2, for which the binding result in the series with Dmp1 (Dmtf1) [2] was “no binding”.

B3: Areg#2 (dsDNA)
DNA 1: TTTGCTCAGGTGAGCATCCGCCACCTCTCAGG
DNA 2: CCTGAGAGGTGGCGGATGCTCACCTGAGCAAA
In the case of B3, the binding result with Dmp1 (Dmtf1) [3] is “binds”.

B4: Tsp-1#1 (dsDNA)
DNA 1: TTTCAGAGCCTGCGTATGTTATAACG
DNA 2: CGTTATAACATACGCAGGCTCTGAAA
Turning to B4, in the series with Dmp1 (Dmtf1) [4], the binding result is listed as “binds”.

B5: Areg#1 (dsDNA)
DNA 1: TTTACCCCAGAACGGGATGGGGAGCAT
DNA 2: ATGCTCCCCATCCCGTTCTGGGGTAAA
Take B5: the binding result in the series with Dmp1 (Dmtf1) [5] is “binds”.

B6: JunB#1 (dsDNA)
DNA 1: TTTTTTTCTTCCAAGCTGGGCGGATGGAGGGAGAAGATTG
DNA 2: CAATCTTCTCCCTCCATCCGCCCAGCTTGGAAGAAAAAAA
With B6, the binding result with Dmp1 (Dmtf1) [2] is recorded as “binds”.
